The record followed here is patent publication US20030180895A1.

What all share (test): cell-based or functional assay
Experiment [1] deals with Bacillus subtilis xylanase A mutant D119Y (Bacillus subtilis) (UniProt P18429).
The target of experiment [2] is Bacillus subtilis xylanase A mutant D11S (Bacillus subtilis) (UniProt P18429).
In experiment [3] the target is Bacillus subtilis xylanase A mutant N114A (Bacillus subtilis) (UniProt P18429).
Experiment [4] deals with Bacillus subtilis xylanase A mutant T123D (Bacillus subtilis) (UniProt P18429).
Experiment [5] addresses Bacillus subtilis wild type xylanase A (Bacillus subtilis) (UniProt P18429).
Experiment [6] has as its target Bacillus subtilis xylanase A mutant Y166F (Bacillus subtilis) (UniProt P18429).

wheat endogenous xylanase inhibitor: the Relative inhibition, % at 1, 26 XIU/ml in experiment [1] was found to be 87%; in experiment [2] it was 98%; in experiment [3] it was 80%; in experiment [4], 83%; in experiment [5], 75%; in experiment [6] it was 74%. The Relative inhibition, % at 3, 15 XIU/ml was 50% in experiment [1]; 81% in experiment [2]; 49% in experiment [3]; 36% in experiment [4]; 40% in experiment [5]; 39% in experiment [6]. Further, the Relative inhibition, % at 6, 3 XIU/ml came out at 28% in experiment [1]; 60% in experiment [2]; 28% in experiment [3]; 20% in experiment [4]; 24% in experiment [5]; 22% in experiment [6]. Also, the Relative inhibition, % at 12, 6 XIU/ml in experiment [1] amounted to 22%; in experiment [2] it was 38%; in experiment [3], 22%; in experiment [4] it was 17%; in experiment [5], 20%; in experiment [6] it was 20%.
